Assay results reported in US20120238493A1 (INDIANA UNIVERSITY RESEARCH AND TECHNOLOGY, published 2012).
Read-outs that look alike come from different tables or passages of the source. *1 amine or outer side, *2 acyl side, *3 side chain or, on linkers, in order; H or OH if unused. Where no end group is shown, it is not given here. Side-chain parts run from the residue outwards. [ ]: non-standard residue; d: D form. The star is where a group is joined. γGlu = O=C(O)[C@H](CCC(=O)[*:2])N[*:1]; Palmitoyl = CCCCCCCCCCCCCCCC(=O)*; Aib = CC(C)(N)C(=O)O

Assays:
Test in all cases: cell-based or functional assay
[1] = target: T1, glucagon receptor (UniProt P47871 26-477, limits assumed)
T1 sequence (P47871 26-477 limits assumed): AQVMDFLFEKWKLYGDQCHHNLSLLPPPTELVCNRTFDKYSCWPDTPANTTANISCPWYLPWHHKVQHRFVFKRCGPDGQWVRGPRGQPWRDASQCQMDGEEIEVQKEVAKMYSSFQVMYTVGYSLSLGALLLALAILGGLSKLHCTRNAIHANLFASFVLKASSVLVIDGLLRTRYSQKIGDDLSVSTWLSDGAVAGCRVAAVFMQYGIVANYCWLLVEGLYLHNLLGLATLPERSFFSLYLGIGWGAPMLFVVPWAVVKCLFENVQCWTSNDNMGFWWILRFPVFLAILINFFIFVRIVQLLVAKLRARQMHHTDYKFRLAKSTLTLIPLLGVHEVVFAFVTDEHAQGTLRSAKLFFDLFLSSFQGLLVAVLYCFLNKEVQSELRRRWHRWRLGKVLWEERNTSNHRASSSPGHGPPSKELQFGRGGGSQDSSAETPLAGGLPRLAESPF

[2] = target: T2, GLP-1 receptor (UniProt P43220 24-463, limits assumed)
[3] = target: T3, GIP receptor (UniProt P48546 22-466, limits assumed)
T3 sequence (looked up): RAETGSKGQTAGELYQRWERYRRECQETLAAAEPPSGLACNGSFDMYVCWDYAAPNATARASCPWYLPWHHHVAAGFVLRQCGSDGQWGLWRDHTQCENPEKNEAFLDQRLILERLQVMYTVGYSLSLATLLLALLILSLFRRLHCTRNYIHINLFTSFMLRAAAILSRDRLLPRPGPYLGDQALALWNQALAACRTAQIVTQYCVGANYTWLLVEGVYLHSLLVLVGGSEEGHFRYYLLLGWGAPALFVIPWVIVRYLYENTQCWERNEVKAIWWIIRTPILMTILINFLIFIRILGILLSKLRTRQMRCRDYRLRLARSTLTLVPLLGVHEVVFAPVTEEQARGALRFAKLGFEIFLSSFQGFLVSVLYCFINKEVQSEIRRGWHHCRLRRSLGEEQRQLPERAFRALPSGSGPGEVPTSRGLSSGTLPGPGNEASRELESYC

[4] = target: T1, glucagon receptor; remark: listed apart in the source
[5] = target: T2, GLP-1 receptor; remark: listed apart in the source
[6] = target: T3, GIP receptor; remark: listed apart in the source
[7] = target: T1, glucagon receptor; remark: listed apart in the source
[8] = target: T2, GLP-1 receptor; remark: listed apart in the source
[9] = target: T3, GIP receptor; remark: listed apart in the source
[10] = target: T1, glucagon receptor; remark: listed apart in the source
[11] = target: T2, GLP-1 receptor; remark: listed apart in the source
[12] = target: T3, GIP receptor; remark: listed apart in the source
[13] = target: T1, glucagon receptor; remark: listed apart in the source
[14] = target: T2, GLP-1 receptor; remark: listed apart in the source
[15] = target: T3, GIP receptor; remark: listed apart in the source
[16] = target: T1, glucagon receptor; remark: listed apart in the source
[17] = target: T2, GLP-1 receptor; remark: listed apart in the source
[18] = target: T3, GIP receptor; remark: listed apart in the source
[19] = target: T1, glucagon receptor; remark: listed apart in the source
[20] = target: T2, GLP-1 receptor; remark: listed apart in the source
[21] = target: T3, GIP receptor; remark: listed apart in the source

Row | Binder | EC50 (cAMP reporter) [1] [nM] | EC50 (cAMP reporter) [2] [nM] | EC50 (cAMP reporter) [3] [nM] | activity (cAMP reporter), column Glu [4] | activity (cAMP reporter), column GLP [5] | activity (cAMP reporter), column GIP [6] | EC50 (cAMP reporter) [7] [nM] | EC50 (cAMP reporter) [8] [nM] | EC50 (cAMP reporter) [9] [nM] | other results
1 | H[Aib]QGTFTSDK([γGlu-Palmitoyl])SKYLDERRA[Aib]EFVQWLLDGGPSSGAPPPS-NH2 (N-terminus assumed; SMILES CCCCCCCCCCCCCCCC(=O)N[C@@H](CCC(=O)NCCCC[C@H](NC(=O)[C@H](CC(=O)O)NC(=O)[C@H](CO)NC(=O)[C@@H](NC(=O)[C@H](Cc1ccccc1)NC(=O)[C@@H](NC(=O)CNC(=O)[C@H](CCC(N)=O)NC(=O)C(C)(C)NC(=O)[C@@H](N)Cc1c[nH]cn1)[C@@H](C)O)[C@@H](C)O)C(=O)N[C@@H](CO)C(=O)N[C@@H](CCCCN)C(=O)N[C@@H](Cc1ccc(O)cc1)C(=O)N[C@@H](CC(C)C)C(=O)N[C@@H](CC(=O)O)C(=O)N[C@@H](CCC(=O)O)C(=O)N[C@@H](CCCNC(=N)N)C(=O)N[C@@H](CCCNC(=N)N)C(=O)N[C@@H](C)C(=O)NC(C)(C)C(=O)N[C@@H](CCC(=O)O)C(=O)N[C@@H](Cc1ccccc1)C(=O)N[C@H](C(=O)N[C@@H](CCC(N)=O)C(=O)N[C@@H](Cc1c[nH]c2ccccc12)C(=O)N[C@@H](CC(C)C)C(=O)N[C@@H](CC(C)C)C(=O)N[C@@H](CC(=O)O)C(=O)NCC(=O)NCC(=O)N1CCC[C@H]1C(=O)N[C@@H](CO)C(=O)N[C@@H](CO)C(=O)NCC(=O)N[C@@H](C)C(=O)N1CCC[C@H]1C(=O)N1CCC[C@H]1C(=O)N1CCC[C@H]1C(=O)N[C@@H](CO)C(N)=O)C(C)C)C(=O)O) [Analog No. 61: Aib2, K10acyl, E16, Aib20, E21, L27, D28, G29 + CEX (SEQ ID NO: 37)] | 0.004 | 0.006 | 0.002 | 0.004 | 0.006 | 0.003 | – | – | – | –
2 | H[Aib]EGTFTSDK([γGlu-C16])SKYLDERRA[Aib]EFVQWLLDGGPSSGAPPPS-NH2 [Analog No. 62: Aib2, E3, K10acyl, E16, Aib20, E21, L27, D28, G29 + CEX (SEQ ID NO: 38)] | 0.127 | 0.008 | 0.012 | 0.127 | 0.008 | 0.012 | – | – | – | –
3 | H[Aib]EGTFTSDK([γGlu-Palmitoyl])SKYLDERAAQDFVQWLLDGGPSSGAPPPS-NH2 (N-terminus assumed; SMILES CCCCCCCCCCCCCCCC(=O)N[C@@H](CCC(=O)NCCCC[C@H](NC(=O)[C@H](CC(=O)O)NC(=O)[C@H](CO)NC(=O)[C@@H](NC(=O)[C@H](Cc1ccccc1)NC(=O)[C@@H](NC(=O)CNC(=O)[C@H](CCC(=O)O)NC(=O)C(C)(C)NC(=O)[C@@H](N)Cc1c[nH]cn1)[C@@H](C)O)[C@@H](C)O)C(=O)N[C@@H](CO)C(=O)N[C@@H](CCCCN)C(=O)N[C@@H](Cc1ccc(O)cc1)C(=O)N[C@@H](CC(C)C)C(=O)N[C@@H](CC(=O)O)C(=O)N[C@@H](CCC(=O)O)C(=O)N[C@@H](CCCNC(=N)N)C(=O)N[C@@H](C)C(=O)N[C@@H](C)C(=O)N[C@@H](CCC(N)=O)C(=O)N[C@@H](CC(=O)O)C(=O)N[C@@H](Cc1ccccc1)C(=O)N[C@H](C(=O)N[C@@H](CCC(N)=O)C(=O)N[C@@H](Cc1c[nH]c2ccccc12)C(=O)N[C@@H](CC(C)C)C(=O)N[C@@H](CC(C)C)C(=O)N[C@@H](CC(=O)O)C(=O)NCC(=O)NCC(=O)N1CCC[C@H]1C(=O)N[C@@H](CO)C(=O)N[C@@H](CO)C(=O)NCC(=O)N[C@@H](C)C(=O)N1CCC[C@H]1C(=O)N1CCC[C@H]1C(=O)N1CCC[C@H]1C(=O)N[C@@H](CO)C(N)=O)C(C)C)C(=O)O) [Analog No. 63: Aib2, E3, K10acyl, E16, L27, D28, G29 + CEX (SEQ ID NO: 39)] | 1.28 | 0.008 | 0.026 | 1.28 | 0.008 | 0.026 | – | – | – | –
4 | H[Aib]QGTFTSDYSKYLD[Aib]RRAQDFVQWLMNT-NH2 (N-terminus assumed; SMILES CSCC[C@H](NC(=O)[C@H](CC(C)C)NC(=O)[C@H](Cc1c[nH]c2ccccc12)NC(=O)[C@H](CCC(N)=O)NC(=O)[C@@H](NC(=O)[C@H](Cc1ccccc1)NC(=O)[C@H](CC(=O)O)NC(=O)[C@H](CCC(N)=O)NC(=O)[C@H](C)NC(=O)[C@H](CCCNC(=N)N)NC(=O)[C@H](CCCNC(=N)N)NC(=O)C(C)(C)NC(=O)[C@H](CC(=O)O)NC(=O)[C@H](CC(C)C)NC(=O)[C@H](Cc1ccc(O)cc1)NC(=O)[C@H](CCCCN)NC(=O)[C@H](CO)NC(=O)[C@H](Cc1ccc(O)cc1)NC(=O)[C@H](CC(=O)O)NC(=O)[C@H](CO)NC(=O)[C@@H](NC(=O)[C@H](Cc1ccccc1)NC(=O)[C@@H](NC(=O)CNC(=O)[C@H](CCC(N)=O)NC(=O)C(C)(C)NC(=O)[C@@H](N)Cc1c[nH]cn1)[C@@H](C)O)[C@@H](C)O)C(C)C)C(=O)N[C@@H](CC(N)=O)C(=O)N[C@H](C(N)=O)[C@@H](C)O) [Glucagon Aib2, Aib16, amide (SEQ ID NO: 42)] | – | – | – | – | – | – | 0.309 | 0.437 | 104 | –
5 | H[Aib]QGTFTSKYSKYLD[Aib]RRAQDFVQWLMNT-NH2 (not fully specified (residue 9)) [Glucagon Aib2, K9(rErEC16), Aib16, amide (SEQ ID NO: 43)] | – | – | – | – | – | – | 1.15 | 0.232 | 15.1 | –
6 | H[Aib]QGTFTSDYSKYLD[Aib]RRAQDFVQWLMNT-NH2 (not fully specified (residue 12)) [Glucagon Aib2, K12(rErEC16), Aib16, amide (SEQ ID NO: 45)] | – | – | – | – | – | – | 0.0425 | 0.0205 | 0.651 | –
7 | H[Aib]QGTFTSDYSKYLDERAAQDFVQWLLDGGPSSGAPPPSK([γGlu-γGlu-Palmitoyl])G-NH2 (not fully specified) [peptide of SEQ ID NO: 89] | – | – | – | – | – | – | – | – | – | EC50 (cAMP reporter) [10]: 0.0041 nM; EC50 (cAMP reporter) [11]: 0.0021 nM; EC50 (cAMP reporter) [12]: 0.024 nM; EC50 (cAMP reporter) [13]: 0.004 nM; EC50 (cAMP reporter) [14]: 0.004 nM; EC50 (cAMP reporter) [15]: 0.02 nM; EC50 (cAMP reporter) [16]: 0.006 nM; EC50 (cAMP reporter) [17]: 0.005 nM; EC50 (cAMP reporter) [18]: 0.028 nM
8 | H[Aib]QGTFTSDK([γGlu-Palmitoyl])SKYLDERAAQDFVQWLLDGGPSSGAPPPSK([γGlu-Palmitoyl])-NH2 (N-terminus assumed; SMILES CCCCCCCCCCCCCCCC(=O)N[C@@H](CCC(=O)NCCCC[C@H](NC(=O)[C@H](CO)NC(=O)[C@@H]1CCCN1C(=O)[C@@H]1CCCN1C(=O)[C@@H]1CCCN1C(=O)[C@H](C)NC(=O)CNC(=O)[C@H](CO)NC(=O)[C@H](CO)NC(=O)[C@@H]1CCCN1C(=O)CNC(=O)CNC(=O)[C@H](CC(=O)O)NC(=O)[C@H](CC(C)C)NC(=O)[C@H](CC(C)C)NC(=O)[C@H](Cc1c[nH]c2ccccc12)NC(=O)[C@H](CCC(N)=O)NC(=O)[C@@H](NC(=O)[C@H](Cc1ccccc1)NC(=O)[C@H](CC(=O)O)NC(=O)[C@H](CCC(N)=O)NC(=O)[C@H](C)NC(=O)[C@H](C)NC(=O)[C@H](CCCNC(=N)N)NC(=O)[C@H](CCC(=O)O)NC(=O)[C@H](CC(=O)O)NC(=O)[C@H](CC(C)C)NC(=O)[C@H](Cc1ccc(O)cc1)NC(=O)[C@H](CCCCN)NC(=O)[C@H](CO)NC(=O)[C@H](CCCCNC(=O)CC[C@H](NC(=O)CCCCCCCCCCCCCCC)C(=O)O)NC(=O)[C@H](CC(=O)O)NC(=O)[C@H](CO)NC(=O)[C@@H](NC(=O)[C@H](Cc1ccccc1)NC(=O)[C@@H](NC(=O)CNC(=O)[C@H](CCC(N)=O)NC(=O)C(C)(C)NC(=O)[C@@H](N)Cc1c[nH]cn1)[C@@H](C)O)[C@@H](C)O)C(C)C)C(N)=O)C(=O)O) [dual acylated peptide of SEQ ID NO: 163] | – | – | – | – | – | – | – | – | – | EC50 (cAMP, nmole) [19]: 0.018 nmol; EC50 (cAMP, nmole) [20]: 0.011 nmol; EC50 (cAMP, nmole) [21]: 0.024 nmol
9 | H[Aib]EGTFTSDYSKYLDERAAQDFVQWLLDGGPSSGAPPPSK([γGlu-γGlu-Palmitoyl])G-NH2 [peptide of SEQ ID NO: 171] | – | – | – | – | – | – | – | – | – | EC50 (cAMP reporter) [13]: 0.455 nM; EC50 (cAMP reporter) [14]: 0.005 nM; EC50 (cAMP reporter) [15]: 0.038 nM
